Here are results for three substances from paper PMC11162321.

The target in assay [1] is F-actin (rabbit skeletal muscle α-actin, filamentous) (rabbit (Oryctolagus cuniculus)) (UniProt P68135). In words: single-molecule TIRF microscopy.
Assay [2] has the same target. In words: fluorescence polarisation. In general terms: Fluorescence polarisation rises when a labelled molecule tumbles more slowly, as on binding a larger partner.
Assay [3] has the same target. In words: cryo-EM structure.
Assay [4] shares this target. In words: other fluorescence titration.

Chain of SipAC (SipA residues 425-685), unlabelled (P0CL52 425-685): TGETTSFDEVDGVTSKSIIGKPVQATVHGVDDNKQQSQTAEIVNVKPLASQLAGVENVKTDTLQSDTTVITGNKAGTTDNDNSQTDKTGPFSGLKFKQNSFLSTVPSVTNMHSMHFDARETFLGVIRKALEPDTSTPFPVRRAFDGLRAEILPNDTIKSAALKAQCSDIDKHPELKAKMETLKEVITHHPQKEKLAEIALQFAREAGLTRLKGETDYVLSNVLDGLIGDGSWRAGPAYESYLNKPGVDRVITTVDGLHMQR
Chain of Alexa-647-SipAC (SipA residues 425-685 labelled with Alexa Fluor 647 maleimide) (P0CL52 425-685): as above
Chain of FM-SipAC (SipA residues 425-685 labelled with fluorescein maleimide) (P0CL52 425-685): as above

Regarding “Alexa-647-SipAC (SipA residues 425-685 labelled with Alexa Fluor 647 maleimide) (from UniProt P0CL52 425-685) (domain or fragment)”, in assay [1], the Kd was found to be 0.1 nM and the koff was determined as 0.00038 s⁻¹.
“FM-SipAC (SipA residues 425-685 labelled with fluorescein maleimide) (from UniProt P0CL52 425-685) (domain or fragment)”: in assay [2], the Kd was determined as 0.9 nM and the koff turned out to be 0.00304 s⁻¹.
For the substance “SipAC (SipA residues 425-685), unlabelled (from UniProt P0CL52 425-685) (domain or fragment)”, the figures for the Kd in assay [2] and in assay [4] were 5 nM and 0.18 nM, respectively. Moreover, in assay [3], the stoichiometry N (SipAC per actin) was determined as 0.5.

Usually Kd stands for the equilibrium constant for the complex coming apart. The low end stands for higher affinity, the high end for lower affinity. As a reminder, the koff is the first-order rate constant of dissociation. A higher koff goes with fast dissociation.
